Laboratory results published in patent US20180016348A1 (Janssen / Centocor, published 2018).

B1: CR12041 (antibody, V domains shown)
VH: EVQLVQSGAEVKKPGASVKVSCKAAGYTFTNYYLHWVRQAPGQGLESMGIINPSSGGTIYAQKFQGRVTMTRDTSTSTVFMELSSLTSEDTAVYYCARAGEGKSRFGEGKLRYFYYGMDVWGQGTTVTVSS
VL: not shown
B2: CR12040 (antibody, V domains shown)
VH: QVQLVQSGAEVKKPGASVKVSCKASGYTFTNYYINWVRQAPGQGLEWMGRINPLHGGTGFAEKFQGRLTMTRDTSTSTVDMELSSLRSEDTAIYYCVKERDTTMATDYYGRSGCFDYWGQGTLVTVSS
VL: EIVLTQSPATLSLSPGERATLSCRASQSVRSYLAWYQQKPGQAPRLLIYDASNRATGIPARFSGSGSGTDFSLTISSLEPEDFAVYYCQQRSNWPITFGQGTRLEIK
B3: CR12044 (antibody, V domains shown)
VH: EVQLVQSGSEVRKPGSTVKVSCKGSGGAFRTSVIHWVRQAPGQGLRWMGGIIPTLDTANHAQEFQGRATITADESTTTAYLELSSLRSEDSAVYYCATDYGGNSDRLGSYSFAFDVWGQGTTVTVSS
VL: not shown
B4: CR12042 (antibody, V domains shown)
VH: EVQLVESGAEVRKPGSSVKVSCTASGDTFSSYTITWVRQAPGQGLEWMGEIIPIFGTANYAQKFQGRVTLTADESTTTAYMDLSSLRSEDTAVYYCARGPDNHSDRYFYYGMDVWGQGTTVTVSS
VL: EIVLTQSPLSLPVTPGEPASISCRSSQSLLHSTGNNYLDWYLQKPGQSPQLLIYLGSNRASGVPDRFSGSGSGTDFTLKISRVEAEDVGVYYCMQALQTPRTFGQGTKVDIK

Key:
[1] = target: neuraminidase (NA) of H3N2 A/Hong Kong/1/1968 (influenza A virus H3N2 A/Hong …, UniProt Q91MA2 1-469); assay: flow cytometry on 293-F cells transfected with NA; '-: no binding'
neuraminidase (NA) of H3N2 A/Hong Kong/1/1968, sequence (Q91MA2 whole entry): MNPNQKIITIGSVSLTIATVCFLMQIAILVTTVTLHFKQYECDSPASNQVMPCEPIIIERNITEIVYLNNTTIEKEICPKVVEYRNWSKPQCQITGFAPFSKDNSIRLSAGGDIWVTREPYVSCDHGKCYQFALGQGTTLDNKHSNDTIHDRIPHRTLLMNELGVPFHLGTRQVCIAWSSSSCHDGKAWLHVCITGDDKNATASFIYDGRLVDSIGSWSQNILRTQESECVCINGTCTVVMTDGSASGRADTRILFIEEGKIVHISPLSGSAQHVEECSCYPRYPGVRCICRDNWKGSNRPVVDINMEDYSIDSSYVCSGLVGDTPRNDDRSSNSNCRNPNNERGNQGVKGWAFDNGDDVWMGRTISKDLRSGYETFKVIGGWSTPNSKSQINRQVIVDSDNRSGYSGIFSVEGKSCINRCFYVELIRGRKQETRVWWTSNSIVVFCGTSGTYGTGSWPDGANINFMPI

[2] = target: T1, neuraminidase (NA) of H1N1 A/New Caledonia/20/1999 (influenza A virus H1N1 A/New …); assay: cell-based or functional assay
[3] = target: T2, neuraminidase (NA) of H1N1 A/Mississippi/3/2001 (influenza A virus H1N1 …); assay: cell-based or functional assay
[4] = target: T1, neuraminidase (NA) of H1N1 A/New …; assay: cell-based or functional assay; remark: listed apart in the source
[5] = target: T2, neuraminidase (NA) of H1N1 …; assay: cell-based or functional assay; remark: listed apart in the source
[6] = target: human FcγRIIIa receptor (V158) (human, UniProt P08637 17-254); assay: cell-based or functional assay
human FcγRIIIa receptor (V158), sequence (P08637 17-254 F176V limits assumed): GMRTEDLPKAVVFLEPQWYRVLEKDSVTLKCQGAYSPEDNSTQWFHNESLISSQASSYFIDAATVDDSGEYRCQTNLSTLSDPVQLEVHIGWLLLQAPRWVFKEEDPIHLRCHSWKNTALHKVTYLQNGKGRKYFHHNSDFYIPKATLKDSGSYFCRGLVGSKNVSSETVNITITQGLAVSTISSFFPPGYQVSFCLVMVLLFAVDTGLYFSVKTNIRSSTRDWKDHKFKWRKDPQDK

[7] = target: T3, neuraminidase (NA) of H1N1 A/Puerto Rico/8/1934 (influenza A virus H1N1 A/Puerto …, UniProt P03468 1-454); assay: flow cytometry on NA-transfected 293-F cells
T3 construct: whole, on cells
T3 sequence (P03468 whole entry): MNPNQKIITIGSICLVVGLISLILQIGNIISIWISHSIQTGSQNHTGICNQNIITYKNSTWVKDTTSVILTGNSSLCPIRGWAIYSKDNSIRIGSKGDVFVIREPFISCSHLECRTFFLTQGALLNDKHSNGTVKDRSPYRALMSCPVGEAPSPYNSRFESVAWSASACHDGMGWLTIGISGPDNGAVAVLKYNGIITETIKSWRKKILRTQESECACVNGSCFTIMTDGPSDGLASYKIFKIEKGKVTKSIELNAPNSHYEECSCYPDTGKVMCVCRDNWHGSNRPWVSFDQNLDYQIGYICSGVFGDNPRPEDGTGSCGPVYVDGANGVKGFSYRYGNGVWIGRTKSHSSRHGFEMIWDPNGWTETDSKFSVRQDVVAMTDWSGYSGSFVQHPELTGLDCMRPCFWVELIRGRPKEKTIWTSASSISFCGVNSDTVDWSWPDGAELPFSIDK

[8] = target: T4, neuraminidase (NA) of H3N2 A/Wisconsin/67/2005 (influenza A virus H3N2 …); assay: cell-based or functional assay
[9] = target: T5, neuraminidase (NA) of H3N2 A/Brisbane/10/2007 (influenza A virus H3N2 …); assay: cell-based or functional assay
[10] = target: T4, neuraminidase (NA) of H3N2 …; assay: cell-based or functional assay; remark: listed apart in the source
[11] = target: T5, neuraminidase (NA) of H3N2 …; assay: cell-based or functional assay; remark: listed apart in the source

Binder | binding result [1] | EC50 of neuraminidase inhibition (NA-XTD assay, whole virus) [2] [µg/mL] | EC50 of neuraminidase inhibition (NA-XTD assay, whole virus) [3] [µg/mL] | IC50 of virus neutralization (VNA on MDCK cells) [4] [µg/mL] | IC50 of virus neutralization (VNA on MDCK cells) [5] [µg/mL] | ADCC reporter D/A ratio; A549 targets infected with H1N1 A/Brisbane/59/2007 [6] | ADCC reporter D/A ratio; A549 targets infected with H1N1 A/Mississippi/03/2001 [6] | ADCC reporter D/A ratio; A549 targets infected with H1N1 A/New Caledonia/20/1999 [6] | ADCC reporter D/A ratio; A549 targets infected with H5N1 A/Hong Kong/156/1997 [6] | ADCC reporter EC50; A549 targets infected with H1N1 A/Brisbane/59/2007 [6] [µg/mL] | ADCC reporter EC50; A549 targets infected with H1N1 A/Mississippi/03/2001 [6] [µg/mL] | ADCC reporter EC50; A549 targets infected with H1N1 A/New Caledonia/20/1999 [6] [µg/mL] | ADCC reporter EC50; A549 targets infected with H5N1 A/Hong Kong/156/1997 [6] [µg/mL] | binding result [7] | EC50 of neuraminidase inhibition (NA-XTD assay, whole virus; one experiment) [8] [µg/mL] | EC50 of neuraminidase inhibition (NA-XTD assay, whole virus; one experiment) [9] [µg/mL] | IC50 of virus neutralization (VNA on MDCK cells; one experiment) [10] [µg/mL] | IC50 of virus neutralization (VNA on MDCK cells; one experiment) [11] [µg/mL]
B1 | no binding (tested: 0.5 µg/ml) | > 100 | > 100 | 0.74 | 0.59 | 2.15 | 8.38 | 4.08 | 5.48 | 1.97 | 0.58 | 1.61 | 1.09 | – | – | – | – | –
B2 | no binding (tested: 5 µg/ml) | > 100 | > 100 | > 50 | > 50 | 2.73 | 9.26 | 3.19 | 3.1 | 3.83 | 0.06 | 0.07 | 1.22 | binds | – | – | – | –
B3 | no binding (tested: 5 µg/ml) | 0.17 | 0.96 | 0.13 | 0.37 | 6.49 | 20.2 | 17.5 | 2.37 | 0.28 | 5.19 | 0.93 | 11.6 | binds | – | – | – | –
B4 | no binding (tested: 5 µg/ml) | 0.18 | 0.12 | 0.2 | 0.2 | 6.11 | 17.4 | 17.7 | 6.87 | 0.08 | 0.14 | 0.28 | 0.01 | binds | 1.87 | 4.8 | > 100 | > 100
